Target: CCR7 receptor (human (endogenous in NKL3 and MDA-MB-231)) (UniProt P32248)
Sequence of UniProt P32248 (P32248 25-378): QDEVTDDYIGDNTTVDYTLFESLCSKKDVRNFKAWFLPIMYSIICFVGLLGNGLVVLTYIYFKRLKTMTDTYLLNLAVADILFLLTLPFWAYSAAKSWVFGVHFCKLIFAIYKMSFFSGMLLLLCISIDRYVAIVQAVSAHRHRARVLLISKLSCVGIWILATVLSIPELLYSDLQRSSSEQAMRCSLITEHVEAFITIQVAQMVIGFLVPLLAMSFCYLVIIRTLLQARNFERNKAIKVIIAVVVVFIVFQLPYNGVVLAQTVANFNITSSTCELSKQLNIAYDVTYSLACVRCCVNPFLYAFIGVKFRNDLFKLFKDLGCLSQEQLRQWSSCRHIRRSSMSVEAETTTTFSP

“recombinant human CCL21 (from UniProt O00585 24-134) (ligand)” gave an adhesion under flow of NKL3 cells to HPLNEC.B3 endothelial cells treated with CCL21, hypoxia; total inhibition by anti-CCR7 neutralizing antibodies of 2.5 fold.
